From patent US20240392276

Biological target: eGFP displaying an MBP tag connected with a TEV cleavage site (MBP-TEVsite-eGFP)

B1: His-CBD-TEV protease (protein)
chain: HHHHHHGSGSSGLTTNPGVSAWQVNTAYTAGQLVTYNGKTYKCLQPHTSLAGWEPSNVPALWQLQGSGSSGESLFKGPRDYNPISSSICHLTNESDGHTTSLYGIGFGPFIITNKHLFRRNNGTLVVQSLHGVFKVKDTTTLQQHLVDGRDMIIIRMPKDFPPFPQKLKFREPQREERICLVTTNFQTKSMSSMVSDTSCTFPSGDGIFWKHWIQTKDGQCGSPLVSTRDGFIVGIHSASNFTNTNNYFTSVPKNFMELLTNQEAQQWVSGWRLNADSVLWGGHKVFMSKPEEPFQPVKEATQLMN
B1 was tested, and the “digestion on Bis-tris protein gel (protease activity)” value was “In the presence of His-CBD-TEV, MBP-TEVsite-eGFP is cleaved into the MBP tag (43 kDa) and eGFP (33 kDa)”.
